B1: MIF4G domain-containing protein (Homo sapiens), A9UHW6 (parent)
chain: MGEPSREEYKIQSFDAETQQLLKTALKDPGAVDLEKVANVIVDHSLQDCVFSKEAGRMCYAIIQAESKQAGQSVFRRGLLNRLQQEYQAREQLRARSLQGWVCYVTFICNIFDYLRVNNMPMMALVNPVYDCLFRLAQPDSLSKEEEVDCLVLQLHRVGEQLEKMNGQRMDELFVLIRDGFLLPTGLSSLAQLLLLEIIEFRAAGWKTTPAAHKYYYSEVSD

Variants of: B1
Details: with slbp_human SLBP

Variant | effect of a mutation on the interaction
MGEPSRAEYKIQSFDAETQQLLKTALKDPGAVDLEKVANVIVDHSLQDCVFSKEAGRMCYAIIQAESKQAGQSVFRRGLLNRLQQEYQAREQLRARSLQGWVCYVTFICNIFDYLRVNNMPMMALVNPVYDCLFRLAQPDSLSKEEEVDCLVLQLHRVGEQLEKMNGQRMDELFVLIRDGFLLPTGLSSLAQLLLLEIIEFRAAGWKTTPAAHKYYYSEVSD [E7A] | with no effect
MGEPSREEYKIQSFDAETQQLLKTALKDPGAVDLEKVANVIVDHSLQDCVFSKEAGRMCYAIIQAESKQAGQSVFRRGLLNRLQQEYQAREQLRARSLQGWVCYVTFICNIFDYLRVNNMPMMALVNPVYDCLFRLAQPDSLSKEEEVDCLVLQLHRVGEQLEKMNGQRMDELFVLIRDGFLLPTGLSSLAQLLLLEIIAFRAAGWKTTPAAHKYYYSEVSD [E200A] | increasing interaction
MGEPSREEYAIQSFDAETQQLLKTALKDPGAVDLEKVANVIVDHSLQDCVFSKEAGRMCYAIIQAESKQAGQSVFRRGLLNRLQQEYQAREQLRARSLQGWVCYVTFICNIFDYLRVNNMPMMALVNPVYDCLFRLAQPDSLSKEEEVDCLVLQLHRVGEQLEKMNGQRMDELFVLIRDGFLLPTGLSSLAQLLLLEIIEFRAAGWKTTPAAHKYYYSEVSD [K10A] | with no effect
MGEPSREEYKIQSFDAETQQLLKTALKDPGAVDLEKVANVIVDHSLQDCVFSKEAGRMCYAIIQAESKQAGQSVARRGLLNRLQQEYQAREQLRARSLQGWVCYVTFICNIFDYLRVNNMPMMALVNPVYDCLFRLAQPDSLSKEEEVDCLVLQLHRVGEQLEKMNGQRMDELFVLIRDGFLLPTGLSSLAQLLLLEIIEFRAAGWKTTPAAHKYYYSEVSD [F75A] | with no effect
MGEPSREEYKIQSFDAETQQLLKTALKDPGAVDLEKVANVIVDHSLQDCVFSKEAGRMCYAIIAAESKQAGQSVFRRGLLNRLQQEYQAREQLRARSLQGWVCYVTFICNIFDYLRVNNMPMMALVNPVYDCLFRLAQPDSLSKEEEVDCLVLQLHRVGEQLEKMNGQRMDELFVLIRDGFLLPTGLSSLAQLLLLEIIEFRAAGWKTTPAAHKYYYSEVSD [Q64A] | with no effect
MGEPSREEYKIQSFDAETQQLLKTALKDPGAVDLEKVANVIVDHSLQDCVFSKEAGRMCYAIIQAESKQAGQSVFRRGLLNRLQQEYQAREQLRARSLQGWVCYVTFICNIFDYLRVNNMPMMALVNPVYDCLFRLAQPDSLSKEEEVDCLVLQLHRVGEQLEKMNGQRMDELFVLIRDGFLLPTGLSSLAQLLLLEIIEFAAAGWKTTPAAHKYYYSEVSD [R202A] | disrupting interaction
MGEPSREEYKIQSFDAETQQLLKTALKDPGAVDLEKVANVIVDHSLQDCVFSKEAGRMCAAIIQAESKQAGQSVFRRGLLNRLQQEYQAREQLRARSLQGWVCYVTFICNIFDYLRVNNMPMMALVNPVYDCLFRLAQPDSLSKEEEVDCLVLQLHRVGEQLEKMNGQRMDELFVLIRDGFLLPTGLSSLAQLLLLEIIEFRAAGWKTTPAAHKYYYSEVSD [Y60A] | with no effect
MGEPSREEYKIQSFDAETQQLLKTALKDPGAVDLEKVANVIVDHSLQDCVFSKEAGAMCYAIIQAESKQAGQSVFRRGLLNRLQQEYQAREQLRARSLQGWVCYVTFICNIFDYLRVNNMPMMALVNPVYDCLFRLAQPDSLSKEEEVDCLVLQLHRVGEQLEKMNGQRMDELFVLIRDGFLLPTGLSSLAQLLLLEIIEFRAAGWKTTPAAHKYYYSEVSD [R57A] | with no effect

Second part, the variant after the results:

effect of a mutation on the interaction | Variant
with no effect | MGEPSREEYKIQSFDAETQQLLKTALKDPGAVDLEKVANVIVDASLQDCVFSKEAGRMCYAIIQAESKQAGQSVFRRGLLNRLQQEYQAREQLRARSLQGWVCYVTFICNIFDYLRVNNMPMMALVNPVYDCLFRLAQPDSLSKEEEVDCLVLQLHRVGEQLEKMNGQRMDELFVLIRDGFLLPTGLSSLAQLLLLEIIEFRAAGWKTTPAAHKYYYSEVSD [H44A]
with no effect | MGEPSREEYKIQSFDAETQQLLKTALKDPGAVDLEKVANVIVDHSLQDCVFSKEAGRMCYAIIQAESKQAGQSVFRRGLLNALQQEYQAREQLRARSLQGWVCYVTFICNIFDYLRVNNMPMMALVNPVYDCLFRLAQPDSLSKEEEVDCLVLQLHRVGEQLEKMNGQRMDELFVLIRDGFLLPTGLSSLAQLLLLEIIEFRAAGWKTTPAAHKYYYSEVSD [R82A]
with no effect | MGEPSREEYKIQSFDAETQQLLKTALKDPGAVDLEKVANVIVDHSLQDCVFSKEAGRMCYAIIQAESKQAGQSVFARGLLNRLQQEYQAREQLRARSLQGWVCYVTFICNIFDYLRVNNMPMMALVNPVYDCLFRLAQPDSLSKEEEVDCLVLQLHRVGEQLEKMNGQRMDELFVLIRDGFLLPTGLSSLAQLLLLEIIEFRAAGWKTTPAAHKYYYSEVSD [R76A]
with no effect | MGEPSREEYKIQSFDAETQQLLKTALKDPGAVDLEKVANVIVDHSLQDCVFSKEAGRMCYAIIQAESKQAGQSVFRRGLLNRLQQEYQAREQLRARSLQGWVCYVTFICNIFDYLRVNNMPMMALVNPVYDCLFRLAQPDSLSKEEEVDCLVLQLHAVGEQLEKMNGQRMDELFVLIRDGFLLPTGLSSLAQLLLLEIIEFRAAGWKTTPAAHKYYYSEVSD [R157A]

Source: IntAct's records for PubMed 23286197
